Columns and labels:
[1] = target: TtCarH G192Q variant (Thermus thermophilus) (UniProt Q53W62); assay: stopped-flow fluorescence; quenching of protein emission (excitation at 280 nm) after rapid mixing of apo-protein with AdoCbl at saturating concentrations (≥10×); kapp of the second phase against protein concentration, fit linearly; monomer to dimer step taken as rate-limiting
[2] = target: TtCarH G192Q variant (Thermus thermophilus) (UniProt Q53W62); assay: native MS; native ion mobility mass spectrometry; G192Q without AdoCbl; monomer to dimer
[3] = target: TtCarH G192Q variant (Thermus thermophilus) (UniProt Q53W62); assay: native MS; native ion mobility mass spectrometry; G192Q with increasing molar ratios of AdoCbl; monomer to dimer
[4] = target: the molecule itself; assay: native MS; native ion mobility mass spectrometry; WT TtCarH, 10 μM apo-protein, no B12 added; monomer to dimer
[5] = target: the molecule itself; assay: native MS; native ion mobility mass spectrometry; WT TtCarH, 10 μM apo-protein, with AdoCbl from sub-stoichiometric quantities to a two-fold excess
[6] = target: the molecule itself; assay: stopped-flow fluorescence; quenching of protein emission (excitation at 280 nm) after rapid mixing of apo-protein with AdoCbl at saturating concentrations (≥10×); kapp of the second phase against protein concentration, fit linearly; monomer to dimer step taken as rate-limiting

| kon [1] [M⁻¹ s⁻¹] | stoichiometry N [2] | stoichiometry N [3] | Molecule | stoichiometry N [4] | stoichiometry N [5] | kon [6] [M⁻¹ s⁻¹] |
| --- | --- | --- | --- | --- | --- | --- |
| 45100 | 2 | 2 | TtCarH G192Q variant (from UniProt Q53W62 1-285) (natural protein) |  |  |  |
|  |  |  | CarH from Thermus thermophilus (TtCarH), wild type (natural protein, CarH, B12-dependent photoreceptor and transcriptional regulator of Thermus thermophilus; Written as the monomer, which associates with itself to dimers and tetramers; The cofactor (AdoCbl or MeCbl, small molecules) was added or left out as told in each assay; also called WT TtCarH; WT) MTSSGVYTIAEVEAMTGLSAEVLRQWERRYGFPKPRRTPGGHRLYSAEDVEALKTIKRWLEEGATPKAAIRRYLAQEVRPEDLGTGLLEALLRGDLAGAEALFRRGLRFWGPEGVLEHLLLPVLREVGEAWHRGEIGVAEEHLASTFLRARLQELLDLAGFPPGPPVLVTTPPGERHEIGAMLAAYHLRRKGVPALYLGPDTPLPDLRALARRLGAGTVVLSAVLSEPLRALPDGALKDLAPRVFLGGQGAGPEEARRLGAEYMEDLKGLAEALWLPRGPEKEAI | 2 | 4 | 50400 ± 2300 |

From paper PMC8221060, “Interplay between chromophore binding and domain assembly by the B12-dependent photoreceptor protein, CarH†” (Chemical Science, 2021)
